Experimental data taken from PMC12167710 (Nature Biotechnology, 2024).

B1: hRBD10 (antibody, V domains shown)
VH: EVQLVESGGGLVQPGGSLRLSCSASGFTFTTYNMNWVRQAPGKGLEWVSYISSSSSTIYYADSVEGRFTISRDNAKNSLYLQMNSLRDEDTAVYYCARGVGATSYYYHGMDVWGQGTTVSVSS
VL: DIQMTQSPSSLSASVGDRVTITCRASQSIYSYLNWYKQKAGKAPKLLIYAASSLQSGVPSRFSGSGSGTDFTLTIISLQPEDFATYYCQQSYSTPPTFGQGTKVEIK
B2: hRBD11 (antibody, V domains shown)
VH: QVQLQESGPGLVKPSQTLSLTCTVSGGSISSGGYYWSWIRQHPGKGLEWIGYIFYSGSTYYNPSLKSRVIISVDTSKNQFSLKLSSVTAADTAAYYCARVNRVYGSGSYSLDPWGQGTLVTVSS
VL: QSALTQPASVSGSPGQSITISCTGTSRDVGDYDYVSWYQQHPGKAPKLMIYEGSERPSGVSNRFSGSKSGNTASLTISGLQAEDEADYYCCSYTGSSTSFLFGTGTKVTVL
B3: mRBD1 (antibody, V domains shown)
VH: QVQLQQPGAELVKPGASVKVSCKASGYTFTSYWMHWVKQRPGQGLEWIGRIHPSDSDTNYNQKFKGKATLTVDKSSNTAYMQLSSLTSEDSAVYYCAILDCYWYFDVWGTGTTVTVSS
VL: QIVLTQSPAIMSASPGEKVTMTCSASSSVSYMYWYQQKPGSSPRLLIYDTSNLASGVPVRFSGSGSGTSYSLTISRMEAEDAATYYCQQWSSYPLTFGAGTKLELK
B4: mRBD12 (antibody, V domains shown)
VH: QVQLQQSGAELARPGASVKLSCKASGYTFTSYGISWVKQRTGQGLEWIGEIYPRSGNTYYNEKFKGKATLTADKSSSTAYMEVRSLTSEDSAVYFCAREGGYGYVMDYWGQGTSVTVSS
VL: DIQMTQTTSSLSASLGDRVTISCRASQDISNYLNWYQQKPDGTVKLLIYYTSRLHSGVPSRFSGSGSGTDYSFTISNLEQEDIATYFCQQGNTLPWTFGGGTKLEIK
B5: mRBD16 (antibody, V domains shown)
VH: QIQLVQSGPELKKPGETVKISCKASGYTLTEYPMHWVKQAPGKGFKWMGMIYTDTGEPTYAEEFKGRFAFSLETSASTAYLQINNLKNEDTATYFCVRAGPSFAMDYWGQGTSVTVSS
VL: NIVLTQSPASLAVSLGQRATISCRASESVDSYGNSFMHWYQQKPGQPPKLLIYLASNLESGVPARFSGSGSRTDFTLTIDPVEADDAATYYCQQNNEDPYTFGGGTKLEIK
B6: mRBD15 (antibody, V domains shown)
VH: QIQLVQSGPDLKKPGETVKISCKASGYTFTEYPMHWVKQAPGKGFQWMGMIYTDTGEPTYAEEFKGRFAFSLETSASTAYLQINNLKNEDTSTYFCVRAGPSYAMDYWGQGTSVTVSS
VL: NIVLTQSPASLAVSLGQRATISCRASESVDSYGNSFMHWYQQKPGQPPKLLIYLASNVESGVPARFSGSGSRTDFTLTIDPVEADDAATYYCHQINEDPYTFGGGTKLEIK
B7: mRBD19 (antibody, V domains shown)
VH: QIQLVQSGPELKKPGETVKISCKASGYTFTEYPMHWVKQAPGKGFKWMGMIYTDTGEPTYAEEFKGRFAFSLETSASTAYLQINNLKNEDTATYFCVRGGPYYAMDYWGQGTSVTVSS
VL: NIVLTQSPASLAVSLGQRATISCRASESVDSYGNSFMHWYQQKPGQPPKLLIYLASNLESGVPARFSGSGSRTDFTLTIDPVEADDAATYYCQQNNEDPWTFGGGTKLEIK
B8: mRBD20 (antibody, V domains shown)
VH: QIQLVQSGPELKKPGETVKISCKASGYTLTEYPMHWVKQAPGKGFKWMGMIYTDTGEPTYAEEFKGRFAFSLETSASTAYLQINNLKNEDTATYFCVRAGPSYAMDYWGQGTSVTVSS
VL: NIVLTQSPASLAMSLGQRATISCRASESVDSYGNSFMHWYQLKPGQPPKLLIYLASNLESGVPARFSGSGSRTDFTLTIDPVEADDAATYYCQQNNEDPYTFGGGTKLEIK
B9: mRBD17 (antibody, V domains shown)
VH: QIQLVQSGPELKKPGETVKISCKASGYTLTEYPMHWVKQAPGKGFKWMGMIYTDTGEPTYAEEFKGRFAFSLETSASTAYLQINNLKNEDTATYFCVRAGPSFAMDYWGQGTSVTVSS
VL: DIQMTQTTSSLSASLGDRVTISCRASQDISNYLNWYQQKPDGTVKLLIYYTSRLHSGVPSRFSGSGSGTDYSLTISNLEQEDFATYFCQQGNTLPYTFGGGTKLEIK
B10: mRBD18 (antibody, V domains shown)
VH: QIQLVQSGPELKKPGETVKISCKASGYTFTDYPMHWVQQAPGKGFKWMGMIYTDTGEPTYAEEFKGRFAFSLETSASTAYLQINNLKNEDTATYFCVRWAGYFDYWGQGTTLTVSS
VL: DIVLTQSPASLAVSLGQRATISCRASESVDSYGNSFMDWYQQKPGQPPKLLIYRASNLESGIPARFSGSGSRTDFTLIINPVEADDVATYYCQQSNEHPLTFGAGTKLELK
B11: mRBD21 (antibody, V domains shown)
VH: QIQLVQSGPELKKPGETVKISCKASGYTFTKYPMHWVKQAPGKGFKWMGMIYTDTGEPTYAEEFKGRCAFSLETSASTAYLQINNLKNEDTATYFCVRWGGSYALDYWGQGTSVTVSS
VL: DIVLTQSPASLAVSLGQRATISCRASESVDSYGNSFMHWYQQKPGQPPKLLIYRASNLESGIPARFSGSGSRTDFTLTINPVEADDVATYYCQQSNEDPLTFGAGTKLELK
B12: mRBD22 (antibody, V domains shown)
VH: QIQLVQSGPELKKPGETVKISCKASGYTFTEYPMHWVKQAPGKGFKWMGMIYTDTGEPTYAEEFKGRFAFSLETSASTAYLQINNLKNEDTATYFCVRGGYYYFDYWGQGTTLTVSS
VL: NIVLTQSPASLAVSLGQRATISCRASESVDSYGNSFMHWYQQKPGQPPKLLIYLASNLESGVPARFSGSGSRTDFTLTIDPVEADDAATYYCQQNNEDPWTFGGGTKLEIK
B13: mRBD2 (antibody, V domains shown)
VH: QVQLQQSGAELARPGASVKLSCKASGYTFISNGISWVKQRTGQGLEWIGEIYPRNGNTYYNEKFKGKATLTADKSSSTAYMELRSLTSEDSAVFFCARDYYYGSFDYWGQGTTLTVSS
VL: DIQMTQSPSSLSASLGERVSLTCRASREISGYLTWLQQKPDGTIKRLIYAASTLDSGVPKRFSGSRSGSDYSLTISSLESEDFADYYCLQYASYPWTFGGGTKLEIK
B14: mRBD23 (antibody, V domains shown)
VH: QVQLQQPGAELVRPGSSVKLSCKASGYTFTSYWMHWVKQRPIQGLEWIGNIDPSDSETHYNQKFKDKATLTVDKSSSTAYMQLSSLTSEDSAVYYCTRPGSLRSRGWYFDVWGTGTTVTVSS
VL: DIVMTQAAPSVPVTPGESVSISCRSSKSLLHSNGNTYLYWFLQRPGQSPQLLIYRMSNLASGVPDRFSGSGSGTAFTLRISRVEAEDVGVYYCMQHLEYPYTFGGGTKLEIK
B15: mRBD24 (antibody, V domains shown)
VH: EVQLQQSGPDLVKPGASVKISCKASGYTFTDYYMNWVKQSHGKSLEWIGDINPNNGGTYYNQKFKGKATLTVDKSSSTAYMELRSLTSEDSAVYYCARQLRRWGQGTLVTVSA
VL: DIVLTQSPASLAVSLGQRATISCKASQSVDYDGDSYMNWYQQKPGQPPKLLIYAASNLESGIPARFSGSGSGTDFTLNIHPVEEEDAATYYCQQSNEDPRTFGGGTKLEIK
B16: mRBD25 (antibody, V domains shown)
VH: QVQLQQSGPELVKPGASVKISCKASGYAFSNSWMNWVKQRPGKGLEWIGRIYPGDGDTNYNGKFKGKATLTADKSSSTAYMQLSSLTSEDSAVYFCANYYGDYWGQGTTLTVSS
VL: QIVLTQSPALMSASPGEKVTMTCSASSSVSYMYWYQQKPRSSPKPWIYLTSNLASGVPARFSGSGSGTSYSLTISSMEAEDAATYYCQQWSSNPYTFGGGTKLEIK
B17: mRBD3 (antibody, V domains shown)
VH: QVQLQQPGAELVMPGTSVKLSCKASGYIFTSYWMHWVKQRPGQGLEWIGEIDPSDNYTNYNQKFKGKSTLTVDKSSSTAYMQLSSLTSEDSAVYYCARGGLYYYGSSYDAMDYWGQGTSVTVSS
VL: DIVMTQAAPSVPVTPGESVSISCRSSKSLLHSNGNTYLYWFLQRPGQSPQLLIYRMSNLASGVPDRFSGSGSGTAFTLRISRVEAEDVGAYYCMQHLEYPFTFGSGTKLEIK
B18: mRBD4 (antibody, V domains shown)
VH: QVQLQQPGAELVMPGASVKLSCKASGYTFTSYWMHWVKQRPGQGLEWIGEIDPSDSYTNYNQKFKDKSTLTVDKSSSTAYMQLSSLTSEDSAVYYCARGGVYYYGSSHYFDYWGQGTTLTVSS
VL: DIVMTQAAPSVPVTPGESVSISCRSSKSLLHSNGNTYLYWFLQRPGQSPQFLIYRMSNLASGVPDRFSGSGSGTAFTLRISRVEAEDVGVYYCMQHLEYPFTFGSGTKLEIK
B19: mRBD5 (antibody, V domains shown)
VH: QVQLQQPGAELVKPGASVKVSCKASGYTFTSYWMHWVKQRPGQGLEWIGRIHPSDSDTNYNQKFKGKATLTVDKSSSTAYMQLSSLTSEDSAVYYCAIDWDGDYWGQGTTLTVSS
VL: DIVMSQSPSSLAVSAGEKVTMSCKSSQSLLNSRTRKNYLAWYQQKPGQSPKLLIYWASTRESGVPDRFTGSGSGTDFTLTISSVQAEDLAVYYCKQSYNLWTFGGGTKLEIK
B20: mRBD6 (antibody, V domains shown)
VH: QVQLQQPGAELVKPGASVKVSCKASGYTFTSYWMHWVKQRPGQGLEWIGRIHPSDSDTNYNQKFKGKATLTVDKSSSTAYMQLSSLTSEDSAVYYCAMDWDVDYWGQGTTLTVSS
VL: DIVMSQSPSSLAVSAGEKVTMSCKSSQSLLNSRTRKNYLAWYQQKPGQSPKLLIYWASTRESGVPDRFTGSGSGTDFTLTISSVQAEDLAVYYCKQSYNLLTFGAGTKLELK
B21: mRBD10 (antibody, V domains shown)
VH: QVQLKQSGAELVRPGASVKLSCKASGYTFTDYYINWVKQRPGQGLEWIARIYPGSGNTYYNEKFKGKATLTAEKSSSTAYMQLSSLTSEDSAVYFCARDYGSSYVDYFDYWGQGTTLTVSS
VL: DIQMTQTTSSLSASLGDRVTISCRASQDISNYLNWYQQKPDGTVKLLIYYTSRLHSGVPSRFSGSGSGTDYSLTISNLEQEDIATYFCQQGNTLPLTFGAGTKLELK
B22: mRBD11 (antibody, V domains shown)
VH: QVQLQQSGAELARPGASVKLSCKASGYTFISNGISWVKQRTGQGLEWIGEIYPRNGNTYYNEKFKGKATLTADKSSSTAYMELRSLTSEDSAVFFCARDYYYGNFDYWGQGTTLTVSS
VL: NIVLTQSPASLAVSLGQRATISCRASESVDSYGNSFMHWYQQKPGQPPKLLIYLASNLESGVPARFSGSGSRTDFTLTIDPVEADDAATYYCQQNNEDPYTFGGGTKLEIK

Molecular target: T1, receptor-binding domain (RBD) of the wild-type SARS-CoV-2 spike protein (SARS-CoV-2, UniProt P0DTC2 333-527)
T1 construct: also called SARS-CoV-2 RBD
Assay: BLI
Details: both partners purified

| Binder | Kd [nM] |
| --- | --- |
| B1 | 0.173 |
| B2 | 8.87 |

Molecular target: T1, receptor-binding domain (RBD) of the …
Assay: ELISA
Details: both partners purified

| Binder | EC50 [nM] |
| --- | --- |
| B3 | 0.134 |
| B4 | 0.109 |
| B5 | 0.0895 |
| B6 | 0.124 |
| B7 | 0.123 |
| B8 | 0.153 |
| B9 | 14.8 |
| B10 | 0.222 |
| B11 | 0.18 |
| B12 | 0.218 |
| B13 | 0.0896 |
| B14 | 0.304 |
| B15 | 0.0635 |
| B16 | 0.0815 |
| B17 | 0.102 |
| B18 | 0.202 |
| B19 | 0.321 |
| B20 | 0.393 |
| B21 | 0.189 |
| B22 | 82.3 |
